Data published in doi:10.1101/2020.01.21.913814.

Biological target: T1, His-tagged Arabidopsis thaliana full-length UVR8 (UV … LOCUS 8) (Arabidopsis thaliana), Q9FN03
T1 chain: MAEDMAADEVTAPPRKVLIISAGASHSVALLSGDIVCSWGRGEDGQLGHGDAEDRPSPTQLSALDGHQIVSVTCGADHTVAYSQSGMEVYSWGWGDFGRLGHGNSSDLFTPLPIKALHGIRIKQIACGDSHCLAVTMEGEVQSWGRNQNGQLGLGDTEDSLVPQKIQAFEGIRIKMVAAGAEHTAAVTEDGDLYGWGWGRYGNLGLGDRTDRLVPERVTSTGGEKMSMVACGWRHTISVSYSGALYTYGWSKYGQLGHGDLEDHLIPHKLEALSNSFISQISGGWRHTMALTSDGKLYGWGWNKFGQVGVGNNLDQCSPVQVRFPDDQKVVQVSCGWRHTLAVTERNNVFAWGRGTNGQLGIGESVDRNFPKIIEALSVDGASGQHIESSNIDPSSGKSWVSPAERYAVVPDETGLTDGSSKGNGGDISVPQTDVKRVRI
Test: SDS-PAGE without boiling
Settings: remark: other sources report otherwise

B1: His-tagged Arabidopsis thaliana full-length UVR8 (UV … LOCUS 8), Q9FN03 1-440 (natural protein)
chain: T1 chain
  stoichiometry N: 2
